Measurements: publication PMC4598862, “Proteasome Activation is Mediated via a Functional Switch of the Rpt6 C-terminal Tail Following Chaperone-dependent Assembly” (Scientific Reports, 2015)

T1: α3-T81C-HA6 (S. cerevisiae, UniProt P23638 1-258, T81C)
T1 construct: CP subunit α3, entire open reading frame with the cysteine substitution; also called α3^HA; source: expressed from the chromosomal locus in S. cerevisiae, immunoprecipitated from lysate on HA-agarose beads; not shown: 6xHA, C-terminal, kept
T1 sequence (looked up): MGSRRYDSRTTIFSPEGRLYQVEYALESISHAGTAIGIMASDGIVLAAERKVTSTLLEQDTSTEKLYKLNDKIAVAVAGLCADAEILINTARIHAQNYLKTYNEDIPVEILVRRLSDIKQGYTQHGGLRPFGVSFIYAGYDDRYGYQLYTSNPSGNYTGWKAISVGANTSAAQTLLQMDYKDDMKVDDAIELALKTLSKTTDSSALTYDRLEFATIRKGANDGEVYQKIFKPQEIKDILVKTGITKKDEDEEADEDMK


Assays:
α3-T81C-HA6 = biological target: T1, α3-T81C-HA6; experiment: cross-linking; proteasomes immunoprecipitated from yeast lysate on HA-agarose via the 6xHA tag of the α subunit, 1 mM ATP; engineered cysteine pair cross-linked with 0.1 mM BMOE, 1 h at 4 °C; SDS-PAGE, immunoblot for the Rpt protein and HA; wild-type and nas6Δ cells (no influence of Nas6); Rpt3-α2 also in rpt6-Δ1 cells (decreased); settings: partners not purified
[1] = biological target: α2-A79C-HA6 (S. cerevisiae) (UniProt P23639); experiment: cross-linking; as a8 but with 2 mM ADP (0.5 mM ADP in the washes)

percent decrease of the crosslink ratio (ATP) relative to the Rpt3-α2^HA ratio (ATP) (α3-T81C-HA6) [%] | percent decrease of crosslinking under ADP relative to ATP [1] [%] | Binder
43.6 |  | Rpt6-K405C (natural protein, S. cerevisiae, UniProt Q01939 1-405, looked up, RP base ATPase Rpt6; K405 is the last residue of Rpt6; source: expressed from the chromosomal locus in S. cerevisiae, in proteasomes immunoprecipitated from lysate via α3-HA6) MTAAVTSSNIVLETHESGIKPYFEQKIQETELKIRSKTENVRRLEAQRNALNDKVRFIKDELRLLQEPGSYVGEVIKIVSDKKVLVKVQPEGKYIVDVAKDINVKDLKASQRVCLRSDSYMLHKVLENKADPLVSLMMVEKVPDSTYDMVGGLTKQIKEIKEVIELPVKHPELFESLGIAQPKGVILYGPPGTGKTLLARAVAHHTDCKFIRVSGAELVQKYIGEGSRMVRELFVMAREHAPSIIFMDEIDSIGSTRVEGSGGGDSEVQRTMLELLNQLDGFETSKNIKIIMATNRLDILDPALLRPGRIDRKIEFPPPSVAARAEILRIHSRKMNLTRGINLRKVAEKMNGCSGADVKGVCTEAGMYALRERRIHVTQEDFELAVGKVMNKNQETAISVAKLFC
 | 90 | Rpt3-K428C (natural protein) MEELGIVTPVEKAVEEKPAVKSYASLLAQLNGTVNNNSALSNVNSDIYFKLKKLEKEYELLTLQEDYIKDEQRHLKRELKRAQEEVKRIQSVPLVIGQFLEPIDQNTGIVSSTTGMSYVVRILSTLDRELLKPSMSVALHRHSNALVDILPPDSDSSISVMGENEKPDVTYADVGGLDMQKQEIREAVELPLVQADLYEQIGIDPPRGVLLYGPPGTGKTMLVKAVANSTKAAFIRVNGSEFVHKYLGEGPRMVRDVFRLARENAPSIIFIDEVDSIATKRFDAQTGSDREVQRILIELLTQMDGFDQSTNVKVIMATNRADTLDPALLRPGRLDRKIEFPSLRDRRERRLIFGTIASKMSLAPEADLDSLIIRNDSLSGAVIAAIMQEAGLRAVRKNRYVILQSDLEEAYATQVKTDNTVDKFDFYC
